Measured values reported in patent US20120316071A1 (published 2012).
Where a chain is given by its changes, count along the chain named. In names and notes the source's numbering stands.

Key:
[1] = target: T1, Recombinant Human DLL4 (R&D Systems Cat#1506-D4/CF) (human, UniProt Q9NR61 27-524); assay: ECL (MSD) binding assay, Fab on immobilized recombinant human DLL4
T1 construct: also called rHuman DLL4; delta-like protein 4

[2] = target: T2, rHuman Notch-1/Fc Chimera, CF (R&D Systems Cat#3647-TK) (human, UniProt P46531 19-526); assay: ECL multispot (MSD) binding assay, antigen spotted on plate, Fab 0.04 uM;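 also: purified Fab incubated 1 h at 20 °C on antigen spots, detected via TAG-labelled antibody, ECL read against each well's blank, with signal-to-blank of at least 4 scored as binder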
T2 construct: Bought recombinant protein; Fc part of the bought chimera not given

[3] = target: T3, rHuman Erythropoietin R/Fc Chimera, CF (R&D Systems Cat#963-ER) (human, UniProt P19235 25-250); assay: as above
T3 construct: Bought recombinant protein; also called EPO R; EPO R/Fc; Fc part of the bought chimera not given
T3 sequence (looked up): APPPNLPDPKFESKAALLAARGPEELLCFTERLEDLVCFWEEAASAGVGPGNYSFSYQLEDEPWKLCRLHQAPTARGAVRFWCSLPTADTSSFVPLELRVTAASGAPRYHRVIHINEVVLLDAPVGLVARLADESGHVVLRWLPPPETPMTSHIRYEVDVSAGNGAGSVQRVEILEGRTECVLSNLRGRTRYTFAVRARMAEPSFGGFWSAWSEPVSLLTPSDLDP

[4] = target: T4, rHuman P-Cadherin/Fc Chimera, CF (R&D Systems Cat#861-PC) (human, UniProt P22223 108-654); assay: as above
T4 construct: Bought recombinant protein; Fc part of the bought chimera not given

[5] = target: T5, rHuman CD44/Fc Chimera, CF (R&D Systems Cat#3660-CD) (human, UniProt P16070 21-220); assay: as above
T5 construct: Bought recombinant protein; Fc part of the bought chimera not given

[6] = target: T6, rHuman ErbB2/Fc Chimera, CF (R&D Systems Cat#1129-ER) (human, UniProt P04626 23-652); assay: as above
T6 construct: Bought recombinant protein; also called human epidermal growth factor 2 receptor; Fc part of the bought chimera not given

[7] = target: T7, Recombinant Human DLL4 (R&D Systems Cat#1506-D4/CF) (human, UniProt Q9NR61 27-524); assay: as above
T7 construct: Bought recombinant protein; also called delta-like protein 4; rHuman DLL4

[8] = target: T8, rHuman EGF R/Fc Chimera, CF (R&D Systems Cat#344-ER) (human, UniProt P00533 25-645); assay: as above
T8 construct: Bought recombinant protein; also called epidermal growth factor receptor; Fc part of the bought chimera not given

[9] = target: T9, Recombinant Human DLL4 (delta-like protein 4) (human, UniProt Q9NR61 27-529); assay: ECL (MSD) 96-well plate assay; plate coated with 15 µg/mL DLL4; Fab 0.004 µM
T9 construct: Bought recombinant protein (R&D Systems Cat#1506-D4/CF); also called rHuman DLL4; Delta-like 4

[10] = target: T9, Recombinant Human DLL4 (delta-like …); assay: ECL (MSD) 96-well plate assay; plate coated with 30 µg/mL DLL4; Fab 0.02 µM
[11] = target: T10, rHuman EGF R/Fc Chimera, CF (R&D Systems Cat#344-ER) (human, UniProt P00533 25-645); assay: ECL Multispot (MSD), antigen spotted on plate, Fab 0.1 uM;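 also: ratio compares each antigen's electrochemiluminescence to the blank within the same well, with a ratio of at least 4 counted as a binding Fab hit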
T10 construct: Bought recombinant Fc chimera; not shown: Fc of the bought R&D Systems chimera

[12] = target: T11, rHuman HGF R/c-MET/Fc Chimera, CF (R&D Systems Cat#358-MT/CF) (human, UniProt P08581 25-932); assay: as above
T11 construct: Bought recombinant Fc chimera; also called HGF R/Fc; not shown: Fc of the bought R&D Systems chimera
T11 sequence (P08581 25-932, change not shown): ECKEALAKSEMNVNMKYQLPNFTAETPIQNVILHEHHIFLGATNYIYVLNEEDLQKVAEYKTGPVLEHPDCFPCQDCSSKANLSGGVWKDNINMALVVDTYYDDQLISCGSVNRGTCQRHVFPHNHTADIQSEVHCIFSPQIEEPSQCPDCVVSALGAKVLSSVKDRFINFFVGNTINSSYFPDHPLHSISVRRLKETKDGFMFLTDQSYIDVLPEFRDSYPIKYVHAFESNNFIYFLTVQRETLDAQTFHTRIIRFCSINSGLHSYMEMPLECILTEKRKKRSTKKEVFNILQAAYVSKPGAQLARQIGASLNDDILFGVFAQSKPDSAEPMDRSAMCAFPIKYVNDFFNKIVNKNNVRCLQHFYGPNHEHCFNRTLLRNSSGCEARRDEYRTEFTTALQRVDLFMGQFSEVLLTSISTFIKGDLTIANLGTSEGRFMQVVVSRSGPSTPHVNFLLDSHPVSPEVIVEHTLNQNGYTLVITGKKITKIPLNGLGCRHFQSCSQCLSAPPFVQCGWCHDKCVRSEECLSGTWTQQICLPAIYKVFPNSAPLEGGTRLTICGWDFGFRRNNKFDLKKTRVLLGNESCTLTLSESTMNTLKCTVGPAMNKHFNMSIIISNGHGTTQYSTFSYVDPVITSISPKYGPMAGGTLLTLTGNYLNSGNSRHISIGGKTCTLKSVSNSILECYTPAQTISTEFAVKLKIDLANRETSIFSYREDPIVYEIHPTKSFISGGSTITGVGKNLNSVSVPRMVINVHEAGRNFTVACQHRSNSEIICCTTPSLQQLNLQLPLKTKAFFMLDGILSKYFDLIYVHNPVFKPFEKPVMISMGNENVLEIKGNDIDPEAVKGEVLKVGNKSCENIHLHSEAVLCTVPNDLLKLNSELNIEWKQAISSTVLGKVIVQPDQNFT

[13] = target: T12, rHuman P-Cadherin/Fc Chimera, CF (R&D Systems Cat#861-PC) (human, UniProt P22223 108-654); assay: as above
T12 construct: Bought recombinant Fc chimera; not shown: Fc of the bought R&D Systems chimera

[14] = target: T13, rHuman IGF-1 sR, CF (R&D Systems Cat#391-GR) (human, UniProt P08069 31-932); assay: as above
T13 construct: Bought recombinant soluble receptor; also called insulin-like growth factor-1 soluble receptor

[15] = target: T14, rHuman Erythropoietin R/Fc Chimera, CF (R&D Systems Cat#963-ER) (human, UniProt P19235 25-250); assay: as above
T14 construct: Bought recombinant Fc chimera; also called EPO R; EPO R/Fc; not shown: Fc of the bought R&D Systems chimera
T14 sequence (looked up): T3 sequence (looked up)

[16] = target: T15, rHuman ErbB2/Fc Chimera, CF (R&D Systems Cat#1129-ER) (human, UniProt P04626 23-652); assay: as above
T15 construct: Bought recombinant Fc chimera; not shown: Fc of the bought R&D Systems chimera

[17] = target: T16, Recombinant Human DLL4 (R&D Systems Cat#1506-D4/CF) (human, UniProt Q9NR61 27-524); assay: as above
T16 construct: Bought recombinant protein; also called delta-like protein 4; rHuman DLL4

[18] = target: T17, rHuman Notch-1/Fc Chimera, CF (R&D Systems Cat#3647-TK) (human, UniProt P46531 19-526); assay: as above
T17 construct: Bought recombinant Fc chimera; not shown: Fc of the bought R&D Systems chimera

[19] = target: T18, rHuman CD44/Fc Chimera, CF (R&D Systems Cat#3660-CD) (human, UniProt P16070 21-220); assay: as above
T18 construct: Bought recombinant Fc chimera; not shown: Fc of the bought R&D Systems chimera

[20] = target: T10, rHuman EGF R/Fc Chimera, CF (R&D …); assay: ECL Multispot (MSD), antigen spotted on plate, Fab 0.01 uM;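 also: electrochemiluminescence of each antigen spot divided by the blank of the same well, with a value of 4 or above scoring the Fab as a binding hit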
[21] = target: T11, rHuman HGF R/c-MET/Fc Chimera, CF (R&D …); assay: as above
[22] = target: T13, rHuman IGF-1 sR, CF (R&D Systems …); assay: as above
[23] = target: T16, Recombinant Human DLL4 (R&D Systems …); assay: as above
[24] = target: T9, Recombinant Human DLL4 (delta-like …); assay: ECL (MSD) multispot assay; Fab 0.1 µM
[25] = target: T9, Recombinant Human DLL4 (delta-like …); assay: ECL (MSD) multispot assay; Fab 0.01 µM

B1: Fab VH5-51_IGHD5-18*01>3_IGHJ4*01 G100K/G104T/G24T/S28R/G35V (KT TRV) & V3-4_IGLJ1*01 (Fab, V domains shown)
VH: EVQLVQSGAEVKKPGESLKISCKTSGYRFTSYWIVWVRQMPGKGLEWMGIIYPGDSDTRYSPSFQGQVTISADKSISTAYLQWSSLKASDTAMYYCARRKYSYTYDYFDYWGQGTLVTVSS
VL: QTVVTQEPSFSVSPGGTVTLTCGLSSGSVSTSYYPSWYQQTPGQAPRTLIYSTNTRSSGVPDRFSGSILGNKAALTITGAQADDESDYYCVLYMGSGISYVFGTGTKVTVL
notes: Tested as Fab; CH1 with His6/Flag tags (plasmid A) and lambda CL (plasmid E) come from the expression vectors; also called H:KT TRV & L:wt
With B1 the “ECL signal” value [1] was 26100.

B2: Fab VH5-51_IGHD5-18*01>3_IGHJ4*01 G100K/G104T (H:KT) & V3-4_IGLJ1*01 S99A (Fab, V domains shown)
VH: B1 VH with T24G, R28S, V35G
VL: B1 VL with S99A
notes: Fab; Expressed from Plasmid A (CH1, His6 and Flag tags) and Plasmid E (lambda CL); also called KT & S99A
Work on B2 yielded an ECL signal [2] of 674, an ECL signal [3] of 693 and an ECL signal [4] of 500. For the same binder, the ECL signal [5] was 670, the ECL signal [6] was 1320 and the ECL signal [7] was 18200. For the same binder, the ECL signal [8] was 956.

B3: Fab VH5-51_IGHD5-18*01>3_IGHJ4*01 G100K/G104T (H:KT) & V3-4_IGLJ1*01 M94A (Fab, V domains shown)
VH: B1 VH with T24G, R28S, V35G
VL: B1 VL with M94A
notes: Fab; Expressed from Plasmid A (CH1, His6 and Flag tags) and Plasmid E (lambda CL); also called KT & M94A
For B3, the ECL signal [2] was 574, the ECL signal [3] was 614 and the ECL signal [4] was 472. For the same binder, the ECL signal [5] was 633, the ECL signal [6] was 1200 and the ECL signal [7] was 35300. The ECL signal [8] was 1130.

B4: Fab VH5-51_IGHD5-18*01>3_IGHJ4*01 G100K/G104T/S28R (KT S28R) & V3-4_IGLJ1*01 (Fab, V domains shown)
VH: B1 VH with T24G, V35G
VL: B1 VL
notes: Tested as Fab; CH1 with His6/Flag tags (plasmid A) and lambda CL (plasmid E) come from the expression vectors
For B4, the “ECL signal” value [1] was 6420.

B5: Fab VH5-51_IGHD5-18*01>3_IGHJ4*01 G100K/G104T (H:KT) & V3-4_IGLJ1*01 Y93A (Fab, V domains shown)
VH: B1 VH with T24G, R28S, V35G
VL: B1 VL with Y93A
notes: Fab; Expressed from Plasmid A (CH1, His6 and Flag tags) and Plasmid E (lambda CL); also called KT & Y93A
For B5, the ECL signal [2] was 725, the ECL signal [3] was 602 and the ECL signal [4] was 497. For the same binder, the ECL signal [5] was 700 and the ECL signal [7] was 8110.

B6: Fab VH5-51_IGHD5-18*01>3_IGHJ4*01 G100K/G104T (H:KT) & V3-4_IGLJ1*01 S96A (Fab, V domains shown)
VH: B1 VH with T24G, R28S, V35G
VL: B1 VL with S96A
notes: Fab; Expressed from Plasmid A (CH1, His6 and Flag tags) and Plasmid E (lambda CL); also called KT & S96A
With B6 the ECL signal [4] was 491, the ECL signal [6] was 1280 and the ECL signal [7] was 32300. The ECL signal [8] was 1000.

B7: Fab VH1-46_IGHD6-6*01_IGHJ1*01 S104C & L6_IGKJ1*01 (Fab, V domains shown)
VH: QVQLVQSGAEVKKPGASVKVSCKASGYTFTSYYMHWVRQAPGQGLEWMGIINPSGGSTSYAQKFQGRVTMTRDTSTSTVYMELSSLRSEDTAVYYCAREEYSSCSAEYFQHWGQGTLVTVSS
VL: not shown
notes: Fab; The VH was cloned into Plasmid A (CH1, His6 and Flag tags) and the kappa VL into Plasmid C (kappa CL); expressed in E. coli
Work on B7 yielded a Signal/Noise [9] of 8.4 and a Signal/Noise [10] of 9.9.

B8: Fab VH1-46_IGHD6-6*01_IGHJ1*01 & L6_IGKJ1*01 (Fab, V domains shown)
VH: B7 VH with C104S
VL: not shown
notes: Germline 'Hit' Fab made in E. coli; The heavy chain variable region was cloned into Plasmid A (CH1, His6 and Flag tags) and the kappa light chain variable region into Plasmid C (kappa CL); also called Parent; parental
For B8, the ECL signal/noise ratio [11] was 1.2, the ECL signal/noise ratio [12] was 1.3 and the ECL signal/noise ratio [13] was 1.6. It also gave an ECL signal/noise ratio [14] of 1.6, an ECL signal/noise ratio [15] of 1.2 and an ECL signal/noise ratio [16] of 1.2. For the same binder, the ECL signal/noise ratio [17] was 40.9, the ECL signal/noise ratio [18] was 1.7 and the ECL signal/noise ratio [19] was 1.8.

B9: Fab VH1-46_IGHD6-6*01_IGHJ1*01 S104R & L6_IGKJ1*01 (Fab, V domains shown)
VH: B7 VH with C104R
VL: not shown
notes: as for B7
B9 was tested, and the Signal/Noise [9] was 28.6 and the Signal/Noise [10] was 23.4.

B10: Fab VH1-46_IGHD6-6*01_IGHJ1*01 S104F & L6_IGKJ1*01 (Fab, V domains shown)
VH: B7 VH with C104F
VL: not shown
notes: Fab made in E. coli; The heavy chain variable region was cloned into Plasmid A (CH1, His6 and Flag tags) and the kappa light chain variable region into Plasmid C (kappa CL)
With B10 the ECL signal/noise ratio [11] was 2, the ECL signal/noise ratio [12] was 1.6 and the ECL signal/noise ratio [14] was 1.7. For the same binder, the ECL signal/noise ratio [17] was 195, the ECL signal/noise ratio [20] was 0.8 and the ECL signal/noise ratio [21] was 0.6. For the same binder, the ECL signal/noise ratio [22] was 0.6 and the ECL signal/noise ratio [23] was 15.3.

B11: Fab VH1-46_IGHD6-6*01_IGHJ1*01 S104F & L6_IGKJ1*01 (Fab, V domains shown)
VH: B7 VH with C104F
VL: not shown
notes: as for B7
B11 was tested, and the “ECL signal” value [24] was 27100, the Signal/Noise [24] was 195 and the “ECL signal” value [25] was 4280. The Signal/Noise [25] was 15.3, the Signal/Noise [9] was 134 and the Signal/Noise [10] was 76.5.

B12: Fab VH1-46_IGHD6-6*01_IGHJ1*01 S104H & L6_IGKJ1*01 (Fab, V domains shown)
VH: B7 VH with C104H
VL: not shown
notes: as for B7
In the case of B12, the “ECL signal” value [24] is reported as 20100, the Signal/Noise [24] is reported as 88.3 and the “ECL signal” value [25] is reported as 4160. For the same binder, the Signal/Noise [25] was 27, the Signal/Noise [9] was 79.2 and the Signal/Noise [10] was 24.9.
